Assay results published in US20240116987A1 (UNIVERSIT CATHOLIQUE DE LOUVAIN, published 2024).
Each block holds one binder with its values, some of them ahead of it. Ends that are not written are not given here.

Key:
[1] = target: T1, LDH-Htr (truncated human LDH-H, dimeric) (human, UniProt A5A6N7 21-334 (Pan troglodytes entry)); assay: MST, labelled LDH-Htr 100 nM, 1.5 s on time, n=3
T1 construct: Recombinant from E. coli; Mainly a dimer, in equilibrium with a weak tetramer; In MST it was labelled with Red-dye-NHS and used at 100 nM; also called hLDH-Htr; truncated LDH-H; not shown: N-terminal 6-His tag from pET-28a (NdeI site)
T1 sequence (A5A6N7 21-334): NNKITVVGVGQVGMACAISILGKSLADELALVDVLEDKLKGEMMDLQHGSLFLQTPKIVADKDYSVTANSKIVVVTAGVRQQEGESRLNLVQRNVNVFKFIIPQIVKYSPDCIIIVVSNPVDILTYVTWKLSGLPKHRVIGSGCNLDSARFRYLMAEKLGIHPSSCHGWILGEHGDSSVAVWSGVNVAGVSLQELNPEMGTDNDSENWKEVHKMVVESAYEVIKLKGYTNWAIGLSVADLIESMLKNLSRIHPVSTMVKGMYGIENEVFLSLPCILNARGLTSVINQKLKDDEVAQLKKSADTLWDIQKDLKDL
Procedure: MST measurements were performed on a Nanotemper® Monolith NT.115 instrument (NanoTemper Technologies®) using Red-dye-NHS fluorescent labelling. […] Measurements were performed in 50 mM sodium phosphate, pH 7.6, and 100 mM NaCl containing 0.01% Tween-20 in standard-treated capillaries (NanoTemper Technologies®). The final concentration of proteins in the assay was 100 nM. Ligands were titrated in 1:1 dilutions following manufacturer's recommendations. Experiments were performed in triplicates using 40% LED power, high MST power, […] and Laser off time 3 s. Poypeptides were evaluated for their thermophoretic pattern, and Kd's were extracted from raw data at a 1.5 s MST on time following the manufacturer's instructions.

[2] = target: LDH-5 (tetramer of human LDH-M subunits, LDH-M4) (human, UniProt P00338 2-332); assay: cell-based or functional assay

Kd [1]: 240 µM
Binder: Ac-GEMMDLQHGSLFLQTP-NH2 (Synthetic peptide bought from Genecust) [polypeptide GP-16]
EC50 of ΔTm (NanoDSF destabilization) of tetrameric LDH-5 (300 nM) [2]: 262 µM

Kd [1]: 156 µM
B1: polypeptide LP-22 (peptide)
peptide: LEDKLKGEMMDLQHGSLFLQTP-NH2
notes: Synthetic peptide bought from Genecust; also called "cluster B1"-derived polypeptide
